19 sequences from the DeepSol protein solubility set can be followed below.

The nature of this series: soluble on expression in E. coli; label from the status in PepcDB or PDB records.
As to “MPDSSMKRGATLCLALAIGPGSTLADDSLGHRDNISTGLNQRQKAEMKVPPGFVEGSTLNGFIRNYYFARDNHDTPSRRDQREWAQGLMLSFRSGYTDTPIGIGLDAHAFYGLRLDGGGGSGGAGVLPLDSAGRPADSFSAAGAALKLRGLDSLLKIGDQLLENPVIASGVSRMVPQSYRGVTLKNYHFRALELDAGFVEATRLRNQSGHSHLTSGYGNGTKGGIAADRESPHIAWLGASYSAPGGSQATLYSGRLEDIWNQHYLGLSQPWRLSSQLTLTPWLHYYKTRDQGRSQLGRIDNDLYNAGLTLAGGGQSLSLSLQKVDGDTPFDFIAQNDRTFLYESNAMQYADFNGPGERSWKIQYQASLAFLAAPDWQFGAAYGRGQADLTRVDPDSAGYGYLYNPNGKNAQHWERDLSLRYAFPAGPAKGLSVTLRWATHRPGEGYTAPGNTRGNSSSDEYRVVVDYPIRLL”, the “soluble on expression in E. coli” value is reported as “not soluble”.
Regarding “MVQEANVRDKMRGTGVSVTRSGDNIILNMPNNVTFDSSSATLKPAGANTLTGVAMVLKEYPKTAVNVIGYTDSTGGHDLNMRLSQQRADSVASALITQGVDASRIRTQGLGPANPIASNSTAEGKAQNRRVEITLSPLLEHHHHHH”, the “soluble on expression in E. coli” value is “not soluble”.
As for “MSVQLKCDAVNCVYNRSHLCSAEEIEVQGGETTGGDATFCGTFSSKSLGNFVSSLGNMNYSGSLKQAVSAEPIMDPKVHCNAVNCTYNDQRYCHADQVEIRNEVSHTAEELEHHHHHH”, the entry is “soluble”; as for “MGSSHHHHHHSSGLVPRGSHMSELLATYLLTEPGADTEKKAEQIATGLTVGSWTDLPLVKQEQMQKHKGRVIKVEEREGTAASEKQAVITIAYPEINFSQDIPALLTTVFGKLSLDGKIKLIDLHFSEAFKRALPGPKFGVYGIRKLLGEFERPLLMSIFKGVIGRDLSDIKEQLRQQALGGVDLIKDDEIFFETGLAPFETRIAEGKQILKETYEQTGHKTLYAVNLTGRTADLKDKARRAAELGADALLFNVFAYGLDVMQGLAEDPEIPVPIMAHPAVSGAFTSSPFYGFSHALLLGKLNRYCGADFSLFPSPYGSVALPRADALAIHEECVREDAFNQTFAVPSAGIHPGMVPLLMRDFGIDHIINAGGGVHGHPNGAQGGGRAFRAIIDAVLEAQPIDEKAEQCKDLKLALDKWGKAEAV”, “soluble”; as for “MLNKVFIIGRLTGDPVITYLPSGTPVVEFTLAYNRRYKNQNGEFQEESHFFDVKAYGKMAEDWATRFSKGYLVLVEGRLSQEKWEKEGKKFSKVRIIAENVRLINRPKGAELQAEEEEEVPPIEEEIEKLGKEEEKPFTDEEDEIPF”, “soluble”.
As for “MGHHHHHHSHDDDDLNTIEFKILAYYTRHHVFKSTPALFSPKLLRTRSLSQRGLGNCSANESWTEVSWPCRNSQSSEKAINLGKKKSSWKAFFGVVEKEDSQSTPAKVSAQGQRTLEYQDSHSQQWSRCLSNVEQCLEHEAVDPKVISIANRVAEIVYSWPPPQATQAGGFKSKEIFVTEGLSFQLQGHVPVASSSKKDEEEQILAKIVELLKYSGDQLERKLKKDKALMGHFQDGLSYSVFKTITDQVLMGVDPRGESEVKAQGFKAALVIDVTAKLTAIDNHPMNRVLGFGTKYLKENFSPWIQQHGGWEKILGISHEEVD”, the entry is “not soluble”; as for “QMTARDVYLPVAAQPSVDTLVGMSQQAEDRGYDRVWLPETWGRDAVTTLTSIAEHTSTVGLGSSILNVYSRSPALLGQTAATLQEVSDGRFRAGVGPSGPIVIEGWHGREFESPLKYTRETVDIMKQVLSGETVDYDGDIFSLSGFRLRCEPPEPAPPVDAGGLGPKSVELAGRFADGWHALMLTADGLRDRLEDFEHGADLGDRDRADQRVTLSLTCCAMDDREQARELARQHVAFYIGGMGTFYRDALARQGYEDTAYEIAEQWGSGNKGAAVDAISDELLDSIAVAGTPEDCRDRIAQFEDIDGVDAINISFPRAAERDTIDTTIDVL”, “not soluble”; as for “LYAHAVESLRHEITAVLLIAKPEDEVLLRLESPGGVVHGYGLAASQLRRLRERNIPLTVAVDKVAASGGYMMACVADKIVSAPFAVIGSVGVVAEVPNIHRLLKKHDIDVDVMTAGEFKRTVTFMGENTEKGKQKFRQELEETHQLFKQFVSENRPGLDIEKIATGEHWFGRQALALNLIDEISTSDD”, “not soluble”.
As for “DSLGWSNVDVLDRICEAYGFSQKIQLANHFDIASSSLSNRYTRGAISYDFAAHCALETGANLQWLLTGEGEAFVNNRESSDAKRIEGFTLSEEILKSDKQLSVDAQFFTKPLTDGMAIRSEGKIYFVDKQASLSDGLWLVDIKGAISIRELTKLPGRKLHVAGGKVPFECGIDDIKTLGRVVGVYSEVN”, the entry is “soluble”; as for “MEQLLFRHNRPGRCVTFAEYRAEGGFAALEKALAGMSPNDVQQVVIDSGLRGRGGAGFPTGKKWSFVPRDIPGPRYLICNCDEMEPGTYKDRVLLEANPYSLVEGMTLAAYAIGVAHAFIFIRRGYEEAAENCRRAIAEAKAAGLLGENILGTGFSLELDVHQSAGRYICGEETALMNALEGKRANPRSKPPFPAVKGLWGRPTVVNNVETLANIPAIVANGAAWFKGLARIPEAAGMKLFCVSGHVNNTACFELPLGMTLGEIIDGPCGGMLPGREFKACIPGGASTPFFTKEHWHVPMDFDTVAKAGSRLGTGGIVVFDRDTCMVAATLNLIVFYARESCGWCTPCREGLPFVQDVLARIEAGEGREEHIGILREHIQYLNYSFCPLAPGAMGPVEGLLRLFEGEIREHIVLGRCPFGGKLEHHHHHH”, “not soluble”; as for “MAHHHHHHMSGKLEDIGELVLLIGDFHSPMRNLGLPDCFKDLLKTDKIKHVLCTGNVGCRENLELLKNIADSVHITKGDMDDEYDFPEDISLTIGDFKMSLIHGHQIIPWGDTNALLQWQKKHDSDIVISGHTHKNSIVRYEGKYFINPGSATGAFQPWLSQPTPSFILMAVAKSSIVVYVYEEKNGKTNVEMSELQK”, “not soluble”.
In the case of “MPLALAQLQDIGDRITDRLRPWSRSAEFWVRAADIYTSYKVAPPDPVPLLHWLVCQLRAGFVKDEEEREAMWEQQHELGAQKMYSLCSELGGLFLKEAAQILGKPDLAPMAWVKRLVTLCDNAPATPIDVVRDVVEKQFGKSFDDIFECFDVEPVGSASIAQVHRARLKLSKTDVAVKVQHPGAEKLMMVDIRNMQAFALFLQKYDINFDLYSATKEMEKQICYEFDFVREAKAMERIREFLRVTNKKKPPVIVPRVIPEMVSREVLVMEFIEGTPIMNLGNEMAKRGIDPGGKIATMAKQKILTDLTLAYGQMILKDGFFHADPHPGNILICKNTEARLLFLFLFLAMVALLDYGQVKAMPEDLRLAYANLVIAMADDDFLRTKESFREIGIETWSIADNELEELFQLSLRMFDTRLPPGVTAMSPFAEDSSLNKVGVQNCLLNGVSILFFYLKSFPEELFSVLRTIQLLRGLTVGMGLRFSCAQQWKPIAEEALLKSGRLKDY”, the “soluble on expression in E. coli” value is “soluble”.
The result for “MGSDKIHHHHHHMEQLPILNLSDWHAGGQSRHAFITKLADAARRIGFFYLTGHGIELARQQQVLLLARDFFALPLADKLAVKMTNTPHFRGYTRLQGELTLGKPDLREQFDIMQEETANPPRSDVPKWSQLQGPNQWPSQLPQMKTILLEWQQDLADTSVALLKALAVALEQSETAFDATIDAGPYQHMKLIRYPNANGETSGQGVGAHKDPGYLTLVLQDKQSGLEVQTDEGWLSIPPLEGAFVVNIGELLELASNGYLKATYHRVTSPPAGVERYSCAFFMAAQLNATVPLLPLPEYLARQALGPASDPLNPLFHQVGQNVLKGRLRSHPDVAKAHYASFANAI” reads “not soluble”; that for “MSLSQPIYKRILLKLSGEALQGEDGLGIDPAILDRMAVEIKELVEMGVEVSVVLGGGNLFRGAKLAKAGMNRVVGDHMGMLATVMNGLAMRDSLFRADVNAKLMSAFQLNGICDTYNWSEAIKMLREKRVVIFSAGTGNPFFTTDSTACLRGIEIEADVVLKATKVDGVYDCDPAKNPDAKLYKNLSYAEVIDKELKVMDLSAFTLARDHGMPIRVFNMGKPGALRQVVTGTEEGTTICEGHHHHHH”, “soluble”; that for “MSLRWQWRIYEEPLQEPLTTAQGVWRSRSGIYLRLEDEQGQVGYGEIAPLPGWGSETLNADIALCQQLPGHLTPEIMATIPEALPAAQFGFATAWQSVGRLPYRVRPWPICALLGSGQAALEQWQQSWQRGQTTFKWKVGVMSPEEEQAILKALLAALPPGAKLRLDANGSWDRATANRWFAWLDRHGNGKIEYVEQPLPPDQWQALLSLAQTVTTAIALDESVVSAAEVQRWVDRGWPGFFVIKTALFGDPDSLSLLLRRGLEPQRLVFSSALEGAIARTAIFHLLETWQPCHALGFGVDRWRSAPLLTTLTAYERLWERLDQGHHHHHH”, “soluble”.
“MSLTVKMGFIGFGKSANRYHLPYVMIRETLEVKTIFDLHVNEKAAAPFKEKGVNFTADLNELLTDPEIELITICTPAHTHYDLAKQAILAGKSVIVEKPFCDTLEHAEELFALGQEKGVVVMPYQNRRFDGDYLAMKQVVEQGFLGEINEVETHIDYYRPGSITEQGPKENGSFYGLGIHLMDRMIALFGRPDQVTYDIRNNEVSEAVDNYFDVDLHYGSKLKVKVKTNHSVASPYPRFIVHGSNGSFIKYGEDQQENDLKAGIMPDAPGFGEDSPMYYGEVTYRNGNGDWIKKQIKTPVGDYGRYYDAVYETLKNGAPQLVTKEQALTNIEILEAGFLNPSPSVYHLKENEGHHHHHH”: the “soluble on expression in E. coli” value was “soluble”.
Regarding “MGSDKIHHHHHHMSLFDHKITELKQLIHKKEIKISDLVDESYKRIQAVDDKVQAFLALDEERARAYAKELDEAVDGRSEHGLLFGMPIGVKDNIVTKGLRTTCSSKILENFDPIYDATVVQRLQDAEAVTIGKLNMDEFAMGSSTENSAYKLTKNPWNLDTVPGGSSGGSAAAVAAGEVPFSLGSDTGGSIRQPASFCGVVGLKPTYGRVSRYGLVAFASSLDQIGPITRTVEDNAFLLQAISGVDKMDSTSANVDVPDFLSSLTGDIKGLKIAVPKEYLGEGVGKEARESVLAALKVLEGLGATWEEVSLPHSKYALATYYLLSSSEASANLARFDGIRYGYRTDNADNLIDLYKQTRAEGFGNEVKRRIMLGTFALSSGYYDAYYKKAQKVRTLIKKDFEDVFEKYDVIVGPTTPTPAFKIGENTKDPLTMYANDILTIPVNLAGVPGISVPCGLADGLPLGLQIIGKHFDESTVYRVAHAFEQATDHHKAKPEL”, the “soluble on expression in E. coli” value is on record as “not soluble”.
The result for “MNSITCPKCGTECDKLFDSVCRDCFFETFKLIDLPLVLHVKICSSCGAYFHRSRWENIGNLEEVVLKAVENALFIHDEAGDVELYLEPKEITPYIYMVRAEVDAIVRGEPVHAEAATEVRVQRIACDMCSRESGGYFEAIIQIRAAGRFPTEEEKRRCSAIAREAMESMKKKGDRLAFISDYQEQKEGIDLYMGSMNASRQVCRMIISELGGSFAESPTLVGMKDGKNLYRITFAMRLPEFRPGDVIRFRGRIIQIRSSGKKVNGISLEDGSRFLSTPEELKGAEKIANIGDAVLTVLVSIEENAILVLDPETYETVAIKKPMFFNAEAGSEIPVLKTEYGIFALAHTDIPQEKLEHHHHHH” reads “soluble”; that for “MAERGFREGTLEEASKILGVDKSSLASLSNLLAEKGVVEVEERVEEHYVLTERGRDALERGLPEEKLVLFLAGRGGEASVEEVRRALGEEAGIALGQAARKGLVVIAGGVVRLAVDQAEALKTITPLKKLLENVASGSKPTVGDELLREALSRGLIRREARRSIVLRLKVNPAEALARARVEAAVLTRDMLKSGEWRRLRFKPYNVKAEPPRVLPARRHFLAEFIERLRDILRELGFREVRGPLVELELFNFDVLFQAQDHPAREIHDSLWIKSPRRGDLSGYSDLVERVASVHERGWKYRWSPEVASRYILRSQTTAVSARILATRPNPPARFFTVGKVFRSDAVGPTRLPEFHQLDGIEGDEGYTFRDLLGRLDEIASMLGLKLKFKPAYFPFTEPSVEGYVKLPNGRWLELFGAGMFRPEVLEAVGVDYPVGAWGFGIERLAMAFYGVSDIRKLYTRNVDEVREMRVRWL”, “soluble”.
